Here are results for 7 molecules from US20200270345A1 (JOINT STOCK COMPANY BIOCAD, published 2020).

Positions count from the first letter of the chain named.

Sequences and labels used below:
B1: BCD106-02_L.Alecto.VHHSel2_MP1_H10_78 (VHH)
VHH: QVKLEESGGGLVQPGGSLRLSCAASRSISSINAMNWYRQAPGKRREWVAQITGEGITNYRDSVKGRFTITSDNAKNTMYLQMNSLKPEDTAVYYCNAFVIHTTSEVYWGQGTLVTVSS
notes: Llama anti-CD47 VHH tested as E. coli culture supernatant; not shown: myc and His6 tags at the C-terminus of the VHH (pET-22)
B2: BCD106-02_L.Alecto.VHHSel2_MP1_G5_37 (VHH)
VHH: AVQLVDSGGGLVQPGGSLRLSCAASRSIFSINAMNWYRQAPGNRREWVAQITDEGITNYVDSVKGRFTITRDNAKNTMYLQMNSLKPEDTAVYYCNAFVITTTSEIYWGQGTTVTVSS
notes: as for B1
B3: BCD106-02_L.Alecto.VHHSel2_MP1_C7_49 (VHH)
VHH: B2 VHH with A40P
notes: as for B1
B4: BCD106-02_L.Alecto.VHHSel2_MP1_F10_76 (VHH)
VHH: B2 VHH with A1D, D6E, S27N, N43K, D53S, T102A, T103S, I106V
notes: as for B1
B5: BCD106-02_L.Alecto.VHHSel2_MP1_G7_53 (VHH)
VHH: QVKLEESGGGLVQPGGSLTLSCAASGIISSINAMNWYRQAPGKRREWVAQITGEGITNCRDSWKGRFSITSDSANNTMYLQMNNLKPDDTDVYYCNAFVIHTTSEIYWGLGTTVTVSS
notes: as for B1
B6: BCD106-02_L.Alecto.VHHSel2_MP1_B9_64 (VHH)
VHH: DVQLVESGGGLVQPGGSLTLSCAASRNIFRINAMNWYRQAPGKRREWVAPITSEGITNYVDSVKGRFTITRDNAKNTMYLQMNSLKPEDTAVYYCNACLITASSEVYWGQGTLVTVSS
notes: as for B1

Sequence of CD47 proprietary (Q08722 19-134 limits assumed): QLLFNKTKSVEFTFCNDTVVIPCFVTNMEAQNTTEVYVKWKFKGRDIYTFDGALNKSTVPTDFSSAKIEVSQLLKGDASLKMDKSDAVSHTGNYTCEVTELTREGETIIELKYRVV

The first assay has as its target CD47 proprietary (human, UniProt Q08722 19-134, limits assumed). Put plainly: ELISA on CD47 proprietary, 450 nm.
Take B1: the “OD units, binding on CD47 proprietary” value came out at 0.448 OD units.
Take B2: the “OD units, binding on CD47 proprietary” value was 0.426 OD units.
Take B3: the “OD units, binding on CD47 proprietary” value came out at 0.379 OD units.
For the molecule B4, the “OD units, binding on CD47 proprietary” value is 0.312 OD units.
B5: the “OD units, binding on CD47 proprietary” value worked out at 0.498 OD units.
B6: the “OD units, binding on CD47 proprietary” value was determined as 0.24 OD units.

The target of another assay is T1, human CD47-Fc (human, UniProt Q08722 19-134).
T1 construct: Leu19-Val134 is the natural numbering printed; also called human CD47-Fc receptor; human CD47-Fc (Biocad); not shown: Fc tag of the expression plasmid
T1 sequence (Q08722 19-134): as the sequence (Q08722 19-134 limits assumed) above
Put plainly: BLI (Octet Red 96), CD47-Fc on ARG2 sensor, VHH in growth medium, 1:1 model. How it is done: VHH antibody fragments were measured to provide an example of analysis of kinetic parameters of interaction of antibody fragments that specifically bind to CD47 receptor. Dissociation constant (kdis)-based comparative screening for VHH fragments was performed using Octet Red 96 and ARG2 amino-reactive biosensors (Pall-ForteBio). Affinity constants can be calculated based on the exact protein concentration in the test solution, and, since cell growth media were used as a protein solution and protein concentrations were not measured, the candidates were compared to each other by using the dissociation constant thereof. Biosensors were pre-rehydrated for an hour in water. After activating biosensors, CD47-Fc at a concentration of 10 μg/ml in acetate buffer pH4 was non-specifically (by NH2 groups) immobilized onto the biosensor. The sensors were then immersed into wells containing cell growth medium with specific VHHs (from about 1 μg of VHH in 1 ml of medium), where the complex was associated. The sensors were then immersed in a buffer solution, where the subsequent stage of dissociation of the complex took place. 1/10 of the volume of 10× working buffer was added to the test specimens in E. Coli growth medium containing anti-CD47 VHH fragments. The obtained curves were analyzed using OctetDataAnalysis (version 7.0) according to the standard procedure with 1:1 interaction model.
The molecule B1 had a koff of 0.006 s⁻¹.
On to B2, for which the koff was 0.006 s⁻¹.
As for B3, the koff turned out to be 0.005 s⁻¹.
B4: the dissociation rate constant (koff) amounted to 0.01 s⁻¹.
For B5, the off-rate constant (koff) was 0.008 s⁻¹.
B6 registered a koff of 0.008 s⁻¹.

Another assay concerns the target T1, human CD47-Fc. Put plainly: ELISA, CD47-Fc coated, VHH in E. coli supernatant, anti-myc detection, 450 nm. On the procedure:
ELISA was used to measure the binding of specific test antibody fragments of Example 4 to human CD47-Fc. ELISA well plates (Nunc ImmunoMaxisorp) were covered with 50 μl/well of human CD47-Fc (Biocad) (0.5 μg/ml in 1× coating carbonate buffer), sealed, and incubated overnight at 4° C. All further stages were performed in accordance with standard ELISA protocols with a high-performance automated platform based on robotic systems such as GenetixQ-pix2xt (Molecular Devices) and Tecan Freedom EVO 200 (Tecan). Non-specific binding was blocked by adding a blocking buffer BB (200 μl 0.5% fat-free milk in PBS). Plates were incubated on a shaker for 1 h at room temperature. After washing with PBS-Tween, each cell was coated with 100 μl of cell supernatant containing the test antibody fragment. The plates were incubated on a shaker for 1 hour at room temperature; further, each plate well was 5 times washed with PBS-Tween buffer. After washing, mouse anti-MYC IgG clone 9E10 (ThermoFisher Scientific) (50 μl/well) was added to PBS-Tween (1:5000). The plates were shaken in rotation shaker (50 min at room temperature) and then 5 times washed with PBS-Tween buffer as described above. After washing, anti-mouse IgG HRP conjugate (ThermoFisher Scientific) (50 μl/well) was added to PBS-Tween (1:10000). The plates were shaken in rotation shaker (50 min at room temperature) and then 5 times washed with PBS-Tween buffer as described above. Colorimetric signal was obtained by adding TMB (50 μl/well) until saturated (average of 10-12 min); further color development was blocked by adding a stop solution (25 μl/well, 1% sulfuric acid). Color signal was measured at 450 nm using a suitable Tecan-Sunrise plate reader (Tecan). Antibody binding was proportional to the signal produced.
Take B1: the “OD units, initial screening for CD47-Fc” value stood at 0.4 OD units.
In the case of B2, the “OD units, initial screening for CD47-Fc” value is 0.166 OD units.
On to B3, for which the “OD units, initial screening for CD47-Fc” value came to 0.127 OD units.
Consider B4, for which the “OD units, initial screening for CD47-Fc” value was 0.213 OD units.
On to B5, for which the “OD units, initial screening for CD47-Fc” value came to 0.319 OD units.
The same measure, in the same setting: then B6, with 0.129 OD units.

A further assay concerns the target T1, human CD47-Fc. Put plainly: competitive ELISA without VHH: uninhibited SIRP-Fc / CD47-Fc signal.
Consider “SIRP-Fc ligand (BIOCAD) (from UniProt P78324 31-370) (Fc fusion)”, for which the OD units, competitive screening to SIRP-Fc stood at 0.481 OD units.

In a further assay the target is T1, human CD47-Fc. As to the kind of experiment: competitive ELISA, competitor SIRP-Fc; lower OD means more blocking.
For the molecule B1, the “OD units, competitive screening to SIRP-Fc” value (“OD units … to SIRP-Fc” below) stood at 0.095 OD units.
For the molecule B2, the “OD units … to SIRP-Fc” value was 0.143 OD units.
For the molecule B3, the “OD units … to SIRP-Fc” value was 0.14 OD units.
With B4, the “OD units … to SIRP-Fc” value is 0.114 OD units.
Turning to B5, the “OD units … to SIRP-Fc” value is 0.088 OD units.
B6: the “OD units … to SIRP-Fc” value turned out to be 0.188 OD units.
